{"source": "patent US20160120951A1", "about": "(ZEALAND PHARMA A S, published 2016)", "binders": {"B1": {"name": "Compound 1 (peptide)", "peptide": "H-HSQGTFTSDYSKYLDSKAAHDFVEWLLRA-NH2"}, "B2": {"name": "Compound 11 (peptide)", "peptide": "H-H[Aib]QGTFTSDYSKYLDSK([γGlu-Palmitoyl])AAHDFVEWLLRA-NH2", "SMILES": "CCCCCCCCCCCCCCCC(=O)N[C@@H](CCC(=O)NCCCC[C@H](NC(=O)[C@H](CO)NC(=O)[C@H](CC(=O)O)NC(=O)[C@H](CC(C)C)NC(=O)[C@H](Cc1ccc(O)cc1)NC(=O)[C@H](CCCCN)NC(=O)[C@H](CO)NC(=O)[C@H](Cc1ccc(O)cc1)NC(=O)[C@H](CC(=O)O)NC(=O)[C@H](CO)NC(=O)[C@@H](NC(=O)[C@H](Cc1ccccc1)NC(=O)[C@@H](NC(=O)CNC(=O)[C@H](CCC(N)=O)NC(=O)C(C)(C)NC(=O)[C@@H](N)Cc1c[nH]cn1)[C@@H](C)O)[C@@H](C)O)C(=O)N[C@@H](C)C(=O)N[C@@H](C)C(=O)N[C@@H](Cc1c[nH]cn1)C(=O)N[C@@H](CC(=O)O)C(=O)N[C@@H](Cc1ccccc1)C(=O)N[C@H](C(=O)N[C@@H](CCC(=O)O)C(=O)N[C@@H](Cc1c[nH]c2ccccc12)C(=O)N[C@@H](CC(C)C)C(=O)N[C@@H](CC(C)C)C(=O)N[C@@H](CCCNC(=N)N)C(=O)N[C@@H](C)C(N)=O)C(C)C)C(=O)O"}, "B3": {"name": "Compound 2 (peptide)", "peptide": "HSQGTFTSDYSKYLDK([γGlu-Palmitoyl])KAAHDFVEWLLRA-NH2", "modifications": "N-terminus assumed", "SMILES": "CCCCCCCCCCCCCCCC(=O)N[C@@H](CCC(=O)NCCCC[C@H](NC(=O)[C@H](CC(=O)O)NC(=O)[C@H](CC(C)C)NC(=O)[C@H](Cc1ccc(O)cc1)NC(=O)[C@H](CCCCN)NC(=O)[C@H](CO)NC(=O)[C@H](Cc1ccc(O)cc1)NC(=O)[C@H](CC(=O)O)NC(=O)[C@H](CO)NC(=O)[C@@H](NC(=O)[C@H](Cc1ccccc1)NC(=O)[C@@H](NC(=O)CNC(=O)[C@H](CCC(N)=O)NC(=O)[C@H](CO)NC(=O)[C@@H](N)Cc1c[nH]cn1)[C@@H](C)O)[C@@H](C)O)C(=O)N[C@@H](CCCCN)C(=O)N[C@@H](C)C(=O)N[C@@H](C)C(=O)N[C@@H](Cc1c[nH]cn1)C(=O)N[C@@H](CC(=O)O)C(=O)N[C@@H](Cc1ccccc1)C(=O)N[C@H](C(=O)N[C@@H](CCC(=O)O)C(=O)N[C@@H](Cc1c[nH]c2ccccc12)C(=O)N[C@@H](CC(C)C)C(=O)N[C@@H](CC(C)C)C(=O)N[C@@H](CCCNC(=N)N)C(=O)N[C@@H](C)C(N)=O)C(C)C)C(=O)O"}, "B4": {"name": "Compound 17 (peptide)", "peptide": "HXQGTFTSDYSKYLDSKAAHDFVEWLLSA", "modifications": "Aib at position 2; K(Hexadecanoyl-ε-Lys) at position 17; C-terminal amide (NH2)"}, "B5": {"name": "Compound 3 (peptide)", "peptide": "H-HSQGTFTSDYSKYLDSK([γGlu-Palmitoyl])AAHDFVEWLLRA-NH2", "SMILES": "CCCCCCCCCCCCCCCC(=O)N[C@@H](CCC(=O)NCCCC[C@H](NC(=O)[C@H](CO)NC(=O)[C@H](CC(=O)O)NC(=O)[C@H](CC(C)C)NC(=O)[C@H](Cc1ccc(O)cc1)NC(=O)[C@H](CCCCN)NC(=O)[C@H](CO)NC(=O)[C@H](Cc1ccc(O)cc1)NC(=O)[C@H](CC(=O)O)NC(=O)[C@H](CO)NC(=O)[C@@H](NC(=O)[C@H](Cc1ccccc1)NC(=O)[C@@H](NC(=O)CNC(=O)[C@H](CCC(N)=O)NC(=O)[C@H](CO)NC(=O)[C@@H](N)Cc1c[nH]cn1)[C@@H](C)O)[C@@H](C)O)C(=O)N[C@@H](C)C(=O)N[C@@H](C)C(=O)N[C@@H](Cc1c[nH]cn1)C(=O)N[C@@H](CC(=O)O)C(=O)N[C@@H](Cc1ccccc1)C(=O)N[C@H](C(=O)N[C@@H](CCC(=O)O)C(=O)N[C@@H](Cc1c[nH]c2ccccc12)C(=O)N[C@@H](CC(C)C)C(=O)N[C@@H](CC(C)C)C(=O)N[C@@H](CCCNC(=N)N)C(=O)N[C@@H](C)C(N)=O)C(C)C)C(=O)O"}, "B6": {"name": "Compound 4 (peptide)", "peptide": "H-HSQGTFTSDYSKYLDSKAAK([γGlu-Palmitoyl])DFVEWLLRA-NH2", "SMILES": "CCCCCCCCCCCCCCCC(=O)N[C@@H](CCC(=O)NCCCC[C@H](NC(=O)[C@H](C)NC(=O)[C@H](C)NC(=O)[C@H](CCCCN)NC(=O)[C@H](CO)NC(=O)[C@H](CC(=O)O)NC(=O)[C@H](CC(C)C)NC(=O)[C@H](Cc1ccc(O)cc1)NC(=O)[C@H](CCCCN)NC(=O)[C@H](CO)NC(=O)[C@H](Cc1ccc(O)cc1)NC(=O)[C@H](CC(=O)O)NC(=O)[C@H](CO)NC(=O)[C@@H](NC(=O)[C@H](Cc1ccccc1)NC(=O)[C@@H](NC(=O)CNC(=O)[C@H](CCC(N)=O)NC(=O)[C@H](CO)NC(=O)[C@@H](N)Cc1c[nH]cn1)[C@@H](C)O)[C@@H](C)O)C(=O)N[C@@H](CC(=O)O)C(=O)N[C@@H](Cc1ccccc1)C(=O)N[C@H](C(=O)N[C@@H](CCC(=O)O)C(=O)N[C@@H](Cc1c[nH]c2ccccc12)C(=O)N[C@@H](CC(C)C)C(=O)N[C@@H](CC(C)C)C(=O)N[C@@H](CCCNC(=N)N)C(=O)N[C@@H](C)C(N)=O)C(C)C)C(=O)O"}}, "note": "Numbered stars: 1 amine (or outer) side, 2 acyl side, 3 side chain; on linkers, the order of the positions; unused ones are H or OH. Square brackets hold non-standard residues; d marks the D form. Side chains are listed from the residue outwards. Ends that are not written are not given here. * marks the point of attachment. γGlu = O=C(O)[C@H](CCC(=O)[*:2])N[*:1]; Palmitoyl = CCCCCCCCCCCCCCCC(=O)*; Aib = CC(C)(N)C(=O)O", "data": [{"biological_target": "T1, human glucagon receptor (Glucagon-R) (human, UniProt P47871 26-477)", "test": "cell-based or functional assay", "units": {"GluR EC50 (nM) (1), cAMP formation in primary human hepatocytes": "nM", "GluR EC50 (nM) (2), cAMP formation in primary human hepatocytes": "nM", "GluR EC50 (nM) (log avg), cAMP formation in primary human hepatocytes": "nM"}, "values": [{"binder": "B1", "GluR EC50 (nM) (1), cAMP formation in primary human hepatocytes": 1.4, "GluR EC50 (nM) (2), cAMP formation in primary human hepatocytes": 2.2, "GluR EC50 (nM) (log avg), cAMP formation in primary human hepatocytes": 1.8}, {"binder": "B2", "GluR EC50 (nM) (1), cAMP formation in primary human hepatocytes": 32.9, "GluR EC50 (nM) (2), cAMP formation in primary human hepatocytes": 25.5, "GluR EC50 (nM) (log avg), cAMP formation in primary human hepatocytes": 28.9}]}, {"biological_target": "T1, human glucagon receptor (Glucagon-R)", "test": "cell-based or functional assay", "remark": "another data set of the same source", "units": {"EC50 (nM) GluR, cAMP formation": "nM"}, "values": [{"binder": "B1", "EC50 (nM) GluR, cAMP formation": 0.06}, {"binder": "B2", "EC50 (nM) GluR, cAMP formation": 0.16}, {"binder": "B3", "EC50 (nM) GluR, cAMP formation": 0.13}, {"binder": "B4", "EC50 (nM) GluR, cAMP formation": 0.39}, {"binder": "B5", "EC50 (nM) GluR, cAMP formation": 0.12}, {"binder": "B6", "EC50 (nM) GluR, cAMP formation": 0.04}]}, {"biological_target": "human glucagon-like peptide 1 receptor (GLP-1R) (human, UniProt P43220 24-463)", "sequence (P43220 24-463)": "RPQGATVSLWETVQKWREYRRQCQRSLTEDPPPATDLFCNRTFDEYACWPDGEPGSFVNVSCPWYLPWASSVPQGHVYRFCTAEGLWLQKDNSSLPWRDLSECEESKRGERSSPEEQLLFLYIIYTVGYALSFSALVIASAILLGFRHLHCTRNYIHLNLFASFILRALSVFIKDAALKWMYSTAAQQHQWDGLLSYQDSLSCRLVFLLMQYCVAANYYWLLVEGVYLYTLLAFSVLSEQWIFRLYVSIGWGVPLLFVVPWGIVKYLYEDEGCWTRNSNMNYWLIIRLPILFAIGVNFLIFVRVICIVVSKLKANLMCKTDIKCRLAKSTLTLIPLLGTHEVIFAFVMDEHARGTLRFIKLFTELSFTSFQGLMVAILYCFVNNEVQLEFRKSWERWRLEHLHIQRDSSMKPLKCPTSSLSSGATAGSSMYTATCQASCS", "test": "cell-based or functional assay", "units": {"EC50 (nM) GLP-1R, cAMP formation": "nM"}, "values": [{"binder": "B1", "EC50 (nM) GLP-1R, cAMP formation": 0.06}, {"binder": "B2", "EC50 (nM) GLP-1R, cAMP formation": 0.09}, {"binder": "B3", "EC50 (nM) GLP-1R, cAMP formation": 0.2}, {"binder": "B4", "EC50 (nM) GLP-1R, cAMP formation": 0.09}, {"binder": "B5", "EC50 (nM) GLP-1R, cAMP formation": 0.11}, {"binder": "B6", "EC50 (nM) GLP-1R, cAMP formation": 0.1}]}]}
